Target: monkey Mpl (monkey)

- EC50 (read off the curve) (growth of BaF3-monkey Mpl cells, WST-8) [B]: 0.01 nM
Substance: hTPO (ligand)

From US20090297501A1
